Here are results for one substance from paper PMC5716730.

The assay has as its target Cartilage oligomeric matrix protein (COMP), full-length, stably overexpressed in prostate cancer cells (human) (UniProt P49747). Put plainly: non-reducing SDS-PAGE with western blot; concentrated conditioned medium (Opti-MEM, 2 days) of transfected cells on a 5% non-reducing SDS-PAGE gel, blotted with anti-human COMP; under reducing conditions (10% gel) a sharp band of 130 kDa. In general terms: Immunoblotting shows a protein as a band on a membrane.

Sequence of Cartilage oligomeric matrix protein (COMP), full-length, stably overexpressed in prostate cancer cells, P49747 21-757 (natural protein; other documents disagree on this pair) (P49747 21-757): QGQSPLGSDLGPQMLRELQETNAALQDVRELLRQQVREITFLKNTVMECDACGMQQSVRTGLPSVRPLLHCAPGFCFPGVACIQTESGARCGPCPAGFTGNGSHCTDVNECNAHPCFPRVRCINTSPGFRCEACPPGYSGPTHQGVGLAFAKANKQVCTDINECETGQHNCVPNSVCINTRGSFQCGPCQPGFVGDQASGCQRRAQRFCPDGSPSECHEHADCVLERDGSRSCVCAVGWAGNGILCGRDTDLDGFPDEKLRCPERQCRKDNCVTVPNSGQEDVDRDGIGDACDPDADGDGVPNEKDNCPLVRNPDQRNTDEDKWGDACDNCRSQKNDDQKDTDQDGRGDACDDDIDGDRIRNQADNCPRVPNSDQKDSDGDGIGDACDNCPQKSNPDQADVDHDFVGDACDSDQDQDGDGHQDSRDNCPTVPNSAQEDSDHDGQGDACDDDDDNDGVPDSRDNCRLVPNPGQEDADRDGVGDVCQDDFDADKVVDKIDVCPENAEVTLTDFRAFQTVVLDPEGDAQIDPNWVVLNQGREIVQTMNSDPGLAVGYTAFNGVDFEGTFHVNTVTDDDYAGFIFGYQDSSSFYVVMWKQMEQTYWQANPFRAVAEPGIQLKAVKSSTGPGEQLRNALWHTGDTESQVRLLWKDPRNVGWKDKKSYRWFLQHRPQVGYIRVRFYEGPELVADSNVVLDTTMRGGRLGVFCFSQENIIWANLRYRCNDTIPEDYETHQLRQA

By stoichiometry N is commonly meant the number of molecules, sites or subunits per partner or assembly. Substance “Cartilage oligomeric matrix protein (COMP), full-length, stably overexpressed in prostate cancer cells, P49747 21-757 (natural protein; other documents disagree on this pair)” yielded a stoichiometry N of 5.
